Experimental data: patent US8114968

B1: 539B-M0016-D01 (Fab, V domains shown)
VH: EVQLLESGGGLVQPGGSLRLSCAASGFTFSEYNMPWVRQAPGKGLEWVSYIYSSGGSTEYADSVKGRFTISRDNSKNTLYLQMNSLRAEDMAVYYCAKDLWEDSSTWGYGMDVWGQGTTVTVSS
VL: QSELTQPPSVSVSPGQTATITCSGDVSVHKSFCWYQQRPGQSPVLVIYQIDKRPSGVPERFSGSISGTTATLTISGTQATDEADYYCQGWDSTTYYVFGTGTKVTVL
B2: 539B-M0041-G01 (Fab, V domains shown)
VH: EVQLLESGGGLVQPGGSLRLSCAASGFTFSYYPMAWVRQAPGKGLEWVSYISSSGGLTTYADSVKGRFTISRDNSKNTLYLQMNSLRAEDTAVYYCARSPTYYDFWSGYWAGIFDYWGQGTLVTVSS
VL: DIQMTQSPSSLSASVGDRVTITCRASQSISYFLNWYQQKPGKAPKLLIYAASTLQGGVPSRFRGSGSGTDFTLTISSLQPEDFATYYCQHSYSTPPITFGPGTKVDIK
B3: 539B-M0034-C04 (Fab, V domains shown)
VH: EVQLLESGGGLVQPGGSLRLSCAASGFTFSEYPMYWVRQAPGKGLEWVSVIYPSGGWTDYADSVKGRFTISRDNSKNTLYLQMNSLRAEDTAVYYCARMAVTGGSRFDYWGQGTLVTVSS
VL: DIQMTQSPSSLSASVGDRVSITCRASQNINSYLNWYQQKVGKAPKLLIFGAYTLHSGAPSRFSGSGSGTDFTLTISSLQPEDVATYYCQQTYTSYSFAQGTKLEIK
B4: 539B-M0041-B05 (Fab, V domains shown)
VH: B3 VH
VL: B3 VL
B5: 539B-M0009-H08 (Fab, V domains shown)
VH: EVQLLESGGGLVQPGGSLRLSCAASGFTFSMYWMFWVRQAPGKGLEWVSSISSSGGHTFYADSVKGRFTISRDNSKNTLYLQMNSLRAEDTAVYYCARGSYSGYDPFDYWGRGTLVTVSS
VL: QYELTQPPALSVAPGETATITCGGDKIGRKSVNWYQQKAGQAPVLVIFYDNDRPSGITGRFSGSNSGNSATLTISRVEAGDEADFYCQVWGPNDFPLFGGGTKLTVL
B6: 539B-M0042-B06 (Fab, V domains shown)
VH: EVQLLESGGGLVQPGGSLRLSCAASGFTFSFYHMEWVRQAPGKGLEWVSSISPSGGHTDYADSVKGRFTISRDNSKNTLYLQMNSLRAEDTAVYYCASLLSGTWGQGTLVTVSS
VL: DIQMTQSPDTLSLSPGERATLSCRASQTISSTFLAWYQQKPGQAPRLLIYGASTRAAGIPDRFIGSGSGTDFTLTISSLEPEDSAVYYCQQYDRSPTFGGGTKVEIK
B7: 539B-M0039-F01 (Fab, V domains shown)
VH: EVQLLESGGGLVQPGGSLRLSCAASGFTFSRYWMDWVRQAPGKGLEWVSGIYPSGGYTLYADSVKGRFTISRDNSKNTLYLQMNSLRAEDTAVYYCARHGDYMDVWGKGTTVTVSS
VL: NIQMTQSPSSVSASVGDRVTITCRASQDINYWLAWYQQKPGKAPKLLIYAASSLQSGVPSRFSGSGSGTDFTLTISSLQPEDFATYYCQRANSFPYTFGQGTKLEIK

Biological target: human MMP-12 (human) (UniProt P39900)
Assay: cell-based or functional assay

Sequence of human MMP-12 (human) (P39900 106-470 limits assumed): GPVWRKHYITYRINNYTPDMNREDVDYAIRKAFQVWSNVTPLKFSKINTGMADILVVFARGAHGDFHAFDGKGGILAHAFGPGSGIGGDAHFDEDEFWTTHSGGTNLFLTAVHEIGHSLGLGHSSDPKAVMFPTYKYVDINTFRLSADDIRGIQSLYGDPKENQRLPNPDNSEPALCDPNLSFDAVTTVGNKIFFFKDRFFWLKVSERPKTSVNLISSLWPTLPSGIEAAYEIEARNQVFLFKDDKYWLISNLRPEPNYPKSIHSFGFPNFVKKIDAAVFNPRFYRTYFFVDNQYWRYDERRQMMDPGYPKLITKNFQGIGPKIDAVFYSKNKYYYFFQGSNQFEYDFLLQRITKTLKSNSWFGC

| Binder | % of activity left with 100 nM in assay 04 Oct. 2006 [%] | % of activity left with 100 nM in assay 29 Aug. 2006 [%] |
| --- | --- | --- |
| B1 | 48.1 | – |
| B2 | 109 | 84.8 |
| B3 | 38.6 | 39.1 |
| B4 | 35.1 | – |
| B5 | 103 | – |
| B6 | 53.6 | – |
| B7 | 69.4 | 57.8 |
